How the values were obtained:
[1] = target: T1, hTra2-β RRM (Homo sapiens, UniProt P62995 110-201); test: ITC
T1 sequence: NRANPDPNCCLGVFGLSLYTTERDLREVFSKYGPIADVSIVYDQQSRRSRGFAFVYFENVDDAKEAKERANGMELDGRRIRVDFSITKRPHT

[2] = target: T1, hTra2-β RRM; test: ITC; remark: listed apart in the source
[3] = target: T1, hTra2-β RRM; test: NMR titration

GAAGAA (ssRNA) [(GAA)2, GAAGAA]
Kd [1]: 1.5 µM

UCAAU (ssRNA)
Kd [2]: 47.8 µM
Kd [3]: ~40 µM

GACUUCAACAAGUC (structured_RNA) [14-mer CAA stem-loop RNA]
Kd [1]: 3.48 µM

— publication PMC3045587
